Numbering of substitutions follows the chain as printed.
B1: anti-PG variant Fc-region antibody M1.3.17 (antibody, V domains shown)
VH: EVKLLESGGGLVQPGGSLKLSCAASGIDFRRYWMNWVRQAPGKGLEWIGEIDPDSSTINYTPSLKDKFIISRDNAKNTMYLQMRKVRSEDTALYYCARPYDYGAWFAYWGQGTLVTVSA
VL: QAVVTQESALTTSPGETVTLTCRSTTGAVTTSNYANWVQEKPDHLFTGLIGGTNKRAPGVPARFSGSLIGDKAALTITGAQTEDEAIYFCALWYSDHWVFGGGTKLTVL
notes: Monomeric, bivalent full-length antibody with murine variable domains; Biotinylated when used as capture antibody; also called anti-PG antibody clone 1.3.17; M1.3.17-Bi
B2: anti-AAA variant Fc-region antibody M1.6.22 (antibody, V domains shown)
VH: EVQLVESGGDLVKPGGSLKLSCAASGFTFSSYGMSWVRQTPDKRLEWVATISSGGSYIYYPDSVKGRFTISRDNAKNTLYLQMSSLKSEDTAMYYCARLGMITTGYAMDYWGQGTSVTVSS
VL: DVLMTQTPLSLPVSLGDQASISCRSSQTIVHSTGHTYLEWFLQKPGQSPKLLIYKVSNRFSGVPDRFSGSGSGTDFTLKISRVEAEDLGVYYCFQGSHVPYTFGGGTKLEIK
notes: Murine variable domains; also called M1.6.22-Bi
B3: anti-PG variant Fc-region antibody M1.7.24 (monomeric, bivalent) (antibody, V domains shown)
VH: B1 VH with I27F, R30S, D52T, M79L, R84I, A97V, Y108S
VL: B1 VL with T25S, D96N
notes: Full-length Y-shaped antibody with murine variable domains; Biotinylated when used as capture antibody; also called anti-PG antibody clone 1.7.24; M1.7.24-Bi

Molecular target: T1, anti-VEGF/ANG2 antibody (IgG1 subclass with mutations P329G/L234A/L235A)
T1 construct: Positions are EU numbers; also called sample 2; antibody 2
Assay: ELISA assay C, tracer FcγRI-Dig, target 13 ng/mL

Binder | signal [OD405 nm]
B1 | 1.23
B2 | 0.061
B3 | 0.06

Molecular target: T2, anti-VEGF/ANG2 antibody (IgG1 subclass with mutations P329G/L234A/L235A/I253A/H310A/H435A)
T2 construct: Format of the bispecific antibody not described; Positions are EU numbers, not positions on the UniProt entry; also called sample 1; antibody 1
Assay: ELISA assay C, tracer FcγRI-Dig, target 13 ng/mL

Binder | signal [OD405 nm]
B1 | 1.14
B2 | 0.064
B3 | 0.085

Molecular target: T3, anti-IGF-1R antibody (IgG1 subclass with mutations I253A/H310A/H435A)
T3 construct: Positions are EU numbers; also called sample 3; antibody 3
Assay: ELISA assay C, tracer FcγRI-Dig, target 13 ng/mL

Binder | signal [OD405 nm]
B1 | 1.21
B2 | 0.175
B3 | 0.058

Molecular target: T4, anti-P-Selectin antibody (IgG4 subclass with mutations S228P/L235E)
T4 construct: Positions are EU numbers; also called sample 4; antibody 4
Assay: ELISA assay C, tracer FcγRI-Dig, target 13 ng/mL

Binder | signal [OD405 nm]
B1 | 1.16
B2 | 0.052
B3 | 0.066

Molecular target: T5, anti-VEGF/ANG2 antibody (wild-type IgG1 subclass) (UniProt P01857-1 1-330 = IgG part)
T5 construct: also called sample 5; antibody 5
Assay: ELISA assay C, tracer FcγRI-Dig, target 13 ng/mL

Binder | signal [OD405 nm]
B1 | 1.17
B2 | 0.07
B3 | 0.057

Molecular target: T1, anti-VEGF/ANG2 antibody (IgG1 subclass …)
Assay: ELISA assay C, tracer FcγRI-Dig, target 6 ng/mL

Binder | signal [OD405 nm]
B1 | 1.22
B2 | 0.06
B3 | 0.06

Molecular target: T2, anti-VEGF/ANG2 antibody (IgG1 subclass …)
Assay: ELISA assay C, tracer FcγRI-Dig, target 6 ng/mL

Binder | signal [OD405 nm]
B1 | 1.17
B2 | 0.06
B3 | 0.079

Molecular target: T3, anti-IGF-1R antibody (IgG1 subclass …)
Assay: ELISA assay C, tracer FcγRI-Dig, target 6 ng/mL

Binder | signal [OD405 nm]
B1 | 1.21
B2 | 0.104
B3 | 0.069

Molecular target: T4, anti-P-Selectin antibody (IgG4 subclass …)
Assay: ELISA assay C, tracer FcγRI-Dig, target 6 ng/mL

Binder | signal [OD405 nm]
B1 | 1.18
B2 | 0.051
B3 | 0.053

Molecular target: T5, anti-VEGF/ANG2 antibody (wild-type IgG1 …)
Assay: ELISA assay C, tracer FcγRI-Dig, target 6 ng/mL

Binder | signal [OD405 nm]
B1 | 1.17
B2 | 0.064
B3 | 0.057

Molecular target: T1, anti-VEGF/ANG2 antibody (IgG1 subclass …)
Assay: ELISA assay C, tracer FcγRI-Dig, target 0 ng/mL (blank)

Binder | signal [OD405 nm]
B1 | 1.23
B2 | 0.064
B3 | 0.092

Molecular target: T2, anti-VEGF/ANG2 antibody (IgG1 subclass …)
Assay: as above

Binder | signal [OD405 nm]
B1 | 1.18
B2 | 0.077
B3 | 0.076

Molecular target: T3, anti-IGF-1R antibody (IgG1 subclass …)
Assay: as above

Binder | signal [OD405 nm]
B1 | 1.22
B2 | 0.069
B3 | 0.086

Molecular target: T4, anti-P-Selectin antibody (IgG4 subclass …)
Assay: as above

Binder | signal [OD405 nm]
B1 | 1.19
B2 | 0.077
B3 | 0.076

Molecular target: T5, anti-VEGF/ANG2 antibody (wild-type IgG1 …)
Assay: as above

Binder | signal [OD405 nm]
B1 | 1.2
B2 | 0.069
B3 | 0.073

Molecular target: T1, anti-VEGF/ANG2 antibody (IgG1 subclass …)
Assay: ELISA assay B, tracer M1.7.10-Dig, target 50 ng/mL
Experimental: (§1) Biotinylated anti-PG Fc-region antibody or biotinylated anti-AAA Fc-region antibody, respectively, was bound to the wells of a streptavidin-coated multi-well plate (SA-MTP) to produce a capture plate. Excess of unbound antibody was removed by washing. Sample/standard antibodies spiked in human and cynomolgus monkey serum (10% final concentration) was added to wells of the SA-MTP multi-well plate coated with the capture plate and incubated for 1 hour at room temperature. After washing, the wells were incubated with digoxygenylated anti-human kappa antibody M1.7.10 (see e.g. WO 2011/048043, incorporated herein by reference). After washing the bound digoxygenylated anti-human kappa antibody complex was incubated with a horseradish peroxidase (HRP) labelled anti-digoxygenin antibody. After another washing step, an ABTS solution was added to the wells and incubated. The product of the color reaction was measured by Elisa reader at 405 nm wavelength (reference wavelength: 490 nm). Absorbance values of each sample or standard were determined in triplicates.

Binder | signal [OD405 nm]
B1 | 0.215
B2 | 0.127
B3 | 3.17

Molecular target: T2, anti-VEGF/ANG2 antibody (IgG1 subclass …)
Assay: ELISA assay B, tracer M1.7.10-Dig, target 50 ng/mL
Experimental: as §1

Binder | signal [OD405 nm]
B1 | 0.035
B2 | 0.05
B3 | 0.06

Molecular target: T3, anti-IGF-1R antibody (IgG1 subclass …)
Assay: ELISA assay B, tracer M1.7.10-Dig, target 50 ng/mL
Experimental: as §1

Binder | signal [OD405 nm]
B1 | 0.048
B2 | 2.9
B3 | 0.064

Molecular target: T4, anti-P-Selectin antibody (IgG4 subclass …)
Assay: ELISA assay B, tracer M1.7.10-Dig, target 50 ng/mL
Experimental: as §1

Binder | signal [OD405 nm]
B1 | 0.049
B2 | 0.047
B3 | 0.043

Molecular target: T5, anti-VEGF/ANG2 antibody (wild-type IgG1 …)
Assay: ELISA assay B, tracer M1.7.10-Dig, target 50 ng/mL
Experimental: as §1

Binder | signal [OD405 nm]
B1 | 0.042
B2 | 0.049
B3 | 0.04

Molecular target: T5, anti-VEGF/ANG2 antibody (wild-type IgG1 …)
Assay: ELISA assay C, tracer FcγRI-Dig, target 3 ng/mL

Binder | signal [OD405 nm]
B1 | 1.19
B2 | 0.069
B3 | 0.053

Molecular target: T3, anti-IGF-1R antibody (IgG1 subclass …)
Assay: ELISA assay B, tracer M1.7.10-Dig, target 2 ng/mL
Experimental: as §1

Binder | signal [OD405 nm]
B1 | 0.047
B2 | 1.48
B3 | 0.047

Molecular target: T4, anti-P-Selectin antibody (IgG4 subclass …)
Assay: ELISA assay B, tracer M1.7.10-Dig, target 2 ng/mL
Experimental: as §1

Binder | signal [OD405 nm]
B1 | 0.049
B2 | 0.032
B3 | 0.033

Source: patent US20240410900A1 (Hoffmann-La Roche, published 2024)
